Test results as given in patent US8709981B2, “Isolated Australian coral reef fluorescent proteins and cell-based kinase or phosphatase platforms for cancer drug development” (priority 2009, dated 2014).

What was measured:
[1] = Fluorescence correlation spectroscopy (FCS) compared to eGFP; format: physicochemical
Text: (§1) The fluorescence emission of a disclosed fluorescent polypeptide having the amino acid sequence set forth in SEQ ID NO: 24 was compared to eGFP. eGFP is one of the brightest fluorescent proteins created to date. Both the disclosed fluorescent polypeptide having the amino acid sequence set forth in SEQ ID NO: 24 and eGFP were cloned into a modified pET-HT vector with a TEV-cleavable His-tag, expressed in BL21-DE3 E. coli, and purified via Ni-NTA resin. The concentration of each sample was normalized by the intensity of the respective absorption spectrum at 480 nm.
(§2) Fluorescence correlation spectroscopy (FCS) measurements (not shown) also indicated the protein having the sequence set forth in SEQ ID NO: 24 is monomeric and about 1.4 times as bright as eGFP. Additionally, as FIG. 6 clearly indicates, the peak emission intensity of the disclosed fluorescent polypeptide having the amino acid sequence set forth in SEQ ID NO: 24 is about 50% greater than that of eGFP.

[2] = Fluorescence emission spectrum compared to eGFP; format: physicochemical; conditions: samples normalized by absorption at 480 nm
Text: as §1, §2

[3] = Fluorescence intensity at different pH (Tris buffer); format: physicochemical; conditions: from pH 6.3 to pH 8.5
Text: A panel of fluorescent proteins was subjected to different pH conditions.

protein kinases = assay: Fluorescence intensity of recombinant protein incubated with protein kinases; format: biochemical
Procedure: (§3) B. Equal quantities of the recombinant PhosFluor or eGFP were subjected to phosphorylation by the indicated protein kinases or to dephosphorylation with alkaline phosphatase (Alk Phos). Fluorescence intensity (representing the change in emission of a part of the emission spectrum compared to the value at 0 hours) was measured over time during the reaction.
(§4) To determine if the fluorescence of PhosFluor could be modulated by phosphorylation, recombinant PhosFluor was incubated with different protein kinases and fluorescence was monitored (FIG. 9B).

[4] = tested on: PKA, PKC, MAPK, cdc2, Akt1, Src; assay: Western blot / SDS-PAGE analysis of phosphorylation; format: biochemical
Procedure: Equal quantities of PhosFluor or eGFP incubated with either PKC or Src for the indicated times (in hours) were resolved on 10% SDS-PAGE gels and immunoblotted to antibodies that reveal total protein (a polyhistidine monoclonal antibody) or phospho-tyrosine. M designates the position of the monomeric form of fluorescent protein while P designates the position of phosphorylated forms of the protein that have undergone a motility shift due to increased negative charge.
Phosphorylation is known to increase the negative charge on proteins, which commonly results in an upward shift in the apparent molecular weight of the protein when resolved by SDS-PAGE (sodium dodecyl sulfate-polyacrylamide gel electrophoresis).

[5] = tested on: protein kinases (PKA, PKC, Akt1, CamKII, MAPK); assay: Excitation and emission spectra after phosphorylation; format: biochemical
Text: FIG. 11 discloses that phosphorylation of PhosFluor alters its spectral properties. The excitation and emission spectra of PhosFluor and eGFP are depicted under control conditions (no kinase) and after phosphorylation by the indicated kinases. The excitation and emission spectra for eGFP are all superimposed under a single curve, while phosphorylation of PhosFluor alters both spectra compared to control conditions.
The excitation and emission spectra of PhosFluor were also obtained under control conditions and when phosphorylated (FIG. 10A). […] A marked shift in the emission spectrum of PhosFluor was observed when this molecule was incubated with PKA, PKC or Akt1 (FIG. 10B). […] These observations are highly significant because changes in the emission spectrum permits ratiometric measurements to be carried out, a highly robust method for quantitating spectral change in a fluorophore. Moreover, the effects reported here were carried out on the unmodified native PhosFluor protein. Enhanced effects would be expected if this protein is optimized for phosphorylation and/or expression as disclosed herein.

alkaline phosphatase = conditions: incubated with alkaline phosphatase
Procedure: as §3, §4

| Molecule | oligomeric state [1] | brightness relative to eGFP ([1]; as bright as eGFP) | peak emission intensity greater than that of eGFP [2] | increase in brightness [3] | fluorescence intensity when incubated with cdc2 and MAPK (protein kinases; cdc2 and MAPK, data not shown) | fluorescence intensity in the absence of added protein kinase (protein kinases; no added protein kinase) | fluorescence intensity when treated with various protein kinases (protein kinases; recombinant protein incubated with kinases) | SDS-PAGE mobility shift upon phosphorylation by PKC ([4]; PKC) | substrate for PKC and Src ([4]; PKC or Src, immunoblot) | phosphorylation of serine and threonine sites ([4]; Western blot, by PKA, PKC, MAPK, cdc2 and Akt1) | excitation spectrum upon phosphorylation ([5]; different protein kinases, including Akt1) | emission spectrum upon phosphorylation ([5]; incubated with PKA, PKC or Akt1) | increase in fluorescence intensity over time with alkaline phosphatase (alkaline phosphatase) |
| --- | --- | --- | --- | --- | --- | --- | --- | --- | --- | --- | --- | --- | --- |
| SEQ ID NO: 24: disclosed fluorescent polypeptide having the amino acid sequence set forth in SEQ ID NO: 24 (protein, listed as Lobophyllia hemprichii) MNVIKTDMKMKLRMVGAVNGHKFEIAGEGKGKPFEGKQTMNLEVLVGGPLPFAFDILTTVFDYGNRVFVKYPRDIADYFKQSFPEGFSWERSMAYEDGGICLATNNITLMKGDCFLYEIRFDGVNFPANSPVLQKKTV | monomeric | about 1.4 times | about 50% | – | – | – | – | – | – | – | – | – | – |
| PhosFluor: fluorescent protein having the amino acid sequence set forth in SEQ ID NO: 10, isolated from Scleractinia (protein, Scleractinia sp) MSAHIKPNMKIKLRMEGDVNGHPFVITGEGSGKPYEGTHAIDLKVKEGGPLPFAYDILTAAFQYGNRAFTKYPADIPDYFKQSFPDGYCWERSMVFEDQGICVVKSVISLDKKEPDCFNYDIRFYGVNFPATGPVMKKKTVKWEPSTQTMYERDGVLVGDVNMALLLEGGGHHRCDFKSTYRAKGVVLNMPGNHYVDHRIEIIHHDKGYNSVTVHESAEARHCSLPSKAK | – | – | – | > 100% | increased above background levels | increased to a lesser degree | dramatic increase in fluorescence intensity | multiple higher molecular weight species | avid substrate | phosphorylated | dramatically altered | marked shift | virtually abolished the increase in fluorescence intensity |
